Assay results published in article PMC9170159 (Proceedings of the National Academy of Sciences of the …, 2022).

B1: NCI-CoV-2F7 VHH-hFc fusion protein (Fc fusion)
VHH: QVKLEESGGGSVQSGGSLRLSCTVSRDTNTNINRCMGWFRQAPGKGLETVATINRDGTNTYYTDAVKGRFTISQDNVKNTVYLQMNNLTPEDTGTYICNAMGRGSGSRCDNWDPNYWGQGTQVTVSS
notes: also called 2F7 VHH-Fc; source: Expi293 cells, transfected, purified (protein A column)
B2: NCI-CoV-7A3 monomeric VHH (VHH-His) (VHH)
VHH: QVQLVESGGGSVQPGGSLRLSCVVSGYTSSSRYMGWFRQVPGKGLEWVSGIKRDGTNTYYADSVKGRFTISQDNAKNTVYLQMNSLKPEDTAMYYCAAGSWYNQWGYSMDYWGKGTQVTVSS
B3: NCI-CoV-8A2 monomeric VHH (VHH-His) (VHH)
VHH: AVQLVDSGGGSVQAGGSLRLSCAASGYTYSICTMGWYRQAPGEGLEWVSGINADGSNTHYTDSVKGRFTISRDNAKKTLYLQMNSLKPEDTAIYYCAAHGTYDKYAPCGGFAGTYTYWGQGTQVTVSS
B4: NCI-CoV-2F7 monomeric VHH (VHH-His) (VHH)
VHH: B1 VHH

Experiments:
[1] = biological target: SARS-CoV-2 (Wuhan-Hu-1) spike receptor-binding domain, His-tagged (SARS-CoV-2, UniProt P0DTC2 319-541); assay: BLI; conditions: both partners purified
[2] = biological target: SARS-CoV-2 spike receptor-binding domain (RBD), Wuhan-Hu-1, His-tagged (SARS-CoV-2 (Wuhan-Hu-1), UniProt P0DTC2); assay: BLI; conditions: both partners purified

Binder | Kd [1] | Kd [2]
B1 | 0.77 nM | 
B2 |  | 0.96 nM
B3 |  | 0.8 nM
B4 |  | 0.75 nM
